Source: patent publication US20090136977

B1: ATase1 (acetyltransferase 1) with a myc tag at the C-terminus (protein)
chain: MAPYHIRKYQESDRKSVVGLLSRGMAEHAPATFRRLLKLPRTLILLLGGALALLLVSGSWILALVFSLSLLPALWFLAKKPWTRYVDIALRTDMSDITKSYLSECGSCFWVGESEEKVVGTVGALPVDDPTLREKRLQLFHLSVDNEHRGQGIAKALVRTVLQFARDQGYSEVVLDTSNIQLSAMGLYQSLGFKKTGQSFFHVWARLVDLHTVHFIYHLPSAQAGRL
B2: ATase2 (acetyltransferase 2) with a myc tag at the C-terminus (protein)
chain: MAPCHIRKYQESDRQWVVGLLSRGMAEHAPATFRQLLKLPRTLILLLGGPLALLLVSGSWLLALVFSISLFPALWFLAKKPWTEYVDMTLCTDMSDITKSYLSERGSCFWVAESEEKVVGMVGALPVDDPTLREKRLQLFHLFVDSEHRRQGIAKALVRTVLQFARDQGYSEVILDTGTIQLSAMALYQSMGFKKTGQSFFCVWARLVALHTVHFIYHLPSSKVGSL

Key:
[1] = biological target: BACE1Arg (Lys-to-Arg mutant form of BACE1), P56817
[2] = biological target: affinity purified BACE1 (BACE1-myc, wild type), P56817
affinity purified BACE1 (BACE1-myc, wild type), P56817, sequence (P56817 22-501): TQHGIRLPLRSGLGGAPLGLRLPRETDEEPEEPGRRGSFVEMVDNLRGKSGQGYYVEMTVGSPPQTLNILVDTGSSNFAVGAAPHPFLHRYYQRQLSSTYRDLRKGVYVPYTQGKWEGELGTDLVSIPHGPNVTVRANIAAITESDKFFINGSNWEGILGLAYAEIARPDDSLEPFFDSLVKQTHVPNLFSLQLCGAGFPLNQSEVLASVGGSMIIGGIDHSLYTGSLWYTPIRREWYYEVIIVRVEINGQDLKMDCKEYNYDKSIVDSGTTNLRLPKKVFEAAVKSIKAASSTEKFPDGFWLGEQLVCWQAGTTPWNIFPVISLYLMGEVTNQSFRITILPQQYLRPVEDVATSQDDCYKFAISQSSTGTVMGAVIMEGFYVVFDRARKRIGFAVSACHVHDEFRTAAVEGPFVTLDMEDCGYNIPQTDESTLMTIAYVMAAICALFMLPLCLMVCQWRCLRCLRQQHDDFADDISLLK

BACE1Arg (Lys-to-Arg mutant form of BACE1), P56817, sequence (P56817 other isoform, or with tags, fused parts or gaps mutant): as the sequence (P56817 22-501) above, with K105R, K254R, K258R, K264R, K278R, K279R, K286R counted along it

Protein | in vitro acetylation of BACE1 with [3H]acetylCoA, scintillation counting [1] | acetylation of BACE1 with non-radiolabeled acetylCoA, Western blot with anti-acetylated lysine [2] | acetyltransferase activity of ERGIC fractions (acceptor: affinity purified BACE1) [2] | average cpm/assay ([3H]acetyl incorporated into BACE1) [2] | in vitro acetylation of BACE1 with [3H]acetylCoA, scintillation counting [2]
B1 | purified ATase1 was able to acetylate BACE1WT but not BACE1Arg | clearly indicate that ATase1 can acetylate BACE1 | ERGIC fractions from ATase1-expressing cells displayed increased (~2-fold) acetyltransferase activity | The average cpm/assay for ATase1 was 1737±486 | purified ATase1 was able to acetylate BACE1WT but not BACE1Arg
B2 | – | there was a marked increase in the acetylation of both the immature and partially-mature forms of BACE1 | – | – | –
